Measurements reported in patent US20250340608A1 (PROTAGONIST THERAPEUTICS, published 2025).
Numbered stars: 1 amine (or outer) side, 2 acyl side, 3 side chain; on linkers, the order of the positions; unused ones are H or OH. Bridge positions count the residues as written; N and C are the ends. Square brackets hold non-standard residues; d marks the D form. Primed or numbered codes have the meaning given here. Side chains are listed from the residue outwards. Ends that are not written are not given here. * marks the point of attachment. Ida = iminodiacetic acid, O=C(CN(CC(=O)[*:3])[*:1])[*:2]; PEG8″ = PEG8 spacer conjugated to the Lys side chain; Dip = N[C@H](C(=O)O)C(c1ccccc1)c1ccccc1; Cyclohexanecarbonyl = O=C(C1CCCCC1)*; Palmitoyl = CCCCCCCCCCCCCCCC(=O)*; Me3Gly = C[N+](C)(C)CC(=O)*; β3hP = O=C(O)C[C@@H]1CCCN1; Isovaleryl = CC(C)CC(=O)*; PEG2′ = not defined here; PEG3′ = not defined here; PEG4′ = not defined here

T1: human ferroportin (SLC40A1) fused in frame with GFP, stably expressed in HEK293 cells (human, UniProt Q9NP59 1-571)
T1 sequence (looked up): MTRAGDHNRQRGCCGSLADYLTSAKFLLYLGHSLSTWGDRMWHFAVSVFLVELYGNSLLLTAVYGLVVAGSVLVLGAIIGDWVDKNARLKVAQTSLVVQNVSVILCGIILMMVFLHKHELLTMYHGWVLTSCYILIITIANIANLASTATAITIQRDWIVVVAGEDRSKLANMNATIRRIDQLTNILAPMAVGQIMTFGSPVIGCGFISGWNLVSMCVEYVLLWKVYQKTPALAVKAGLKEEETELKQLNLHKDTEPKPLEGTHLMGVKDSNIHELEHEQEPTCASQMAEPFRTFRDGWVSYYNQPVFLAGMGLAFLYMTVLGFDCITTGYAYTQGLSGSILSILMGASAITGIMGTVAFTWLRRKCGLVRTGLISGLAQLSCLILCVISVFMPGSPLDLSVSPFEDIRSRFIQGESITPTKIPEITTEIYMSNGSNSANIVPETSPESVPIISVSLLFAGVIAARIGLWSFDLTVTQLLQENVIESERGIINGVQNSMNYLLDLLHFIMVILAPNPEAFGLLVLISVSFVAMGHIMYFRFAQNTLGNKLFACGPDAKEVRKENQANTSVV


Biological target: T1, human ferroportin (SLC40A1) fused in …
Assay: cell-based or functional assay

Binder	Potency EC50	Potency EC50 (nM)
[Ida]TH[Dip][β3hP]ICIFGPRSKGWVCM-NH2 (disulfide 7-18 (inferred)) [Compound 5]	17 nM	
Isovaleryl-DTHFPICIFGPRSK(PEG8″)GWVC-NH2 (not fully specified (bridges); cysteine pairing not given here) [Compound 176]	6 nM	
Cyclohexanecarbonyl-DTHFPCIKFGPRSKGWVCK-NH2 (not fully specified (bridges); cysteine pairing not given here) [Compound 168]	30 nM	
H-DTHFAICIFGPRSKGWVCM-NH2 (cysteine pairing not given here) [Compound 26]	147 nM	
H-DTHFPICIFGPRSKGWVCM-NH2 (not fully specified (bridges); cysteine pairing not given here) [Compound 18]	125 nM	
H-DTHFPICIFAPRSKGWVCM-NH2 (cysteine pairing not given here) [Compound 22]	9430 nM	
H-DTHFPICIFGPRAKGWVCM-NH2 (cysteine pairing not given here) [Compound 16]	88 nM	
H-DTHFPCIIFGPRSKGWVCM-NH2 (cysteine pairing not given here) [Compound 21]	46 nM	
Isovaleryl-DTHFPCIIFGPRSRGWVCK(PEG8″)-NH2 (not fully specified (bridges); cysteine pairing not given here) [Compound 178]	3 nM	
{Isovaleryl-PEG3′}-DTHFPCIKFGPRSKGWVCK-NH2 (cysteine pairing not given here) [Compound 161]	666 nM	
Isovaleryl-DTHFPCIKFGPRSKGWVCK(Me3Gly)-NH2 (cysteine pairing not given here) [Compound 159]	17 nM	
Isovaleryl-DTHFPCIKFEPRSKGWVCK-NH2 (not fully specified (bridges); cysteine pairing not given here) [Compound 181]	15 nM	
Isovaleryl-DTHFPICIFGPRSK(PEG4′)GWVC-NH2 (not fully specified (bridges); cysteine pairing not given here) [Compound 177]	6 nM	
Isovaleryl-DTHFPCIIFGPRSRGWVCK(PEG2′)-NH2 (not fully specified (bridges); cysteine pairing not given here) [Compound 180]	9 nM	
Isovaleryl-DTHFPCIKFGPRSK(Me3Gly)GWVCK-NH2 (cysteine pairing not given here) [Compound 157]	18 nM	
Isovaleryl-DTHFPCIIFGPRSKGWECK-NH2 (not fully specified (bridges); cysteine pairing not given here) [Compound 172]	15 nM	
Isovaleryl-DTHFPCIIFGPRSKGWVCK-NH2 (not fully specified (bridges); cysteine pairing not given here) [Compound 11]	9 nM	
Isovaleryl-DTHFPCIIFGPRSRGWVCK(PEG4′)-NH2 (not fully specified (bridges); cysteine pairing not given here) [Compound 179]	4 nM	
H-VDTHFPCIKFGPRSKGWVCK-NH2 (cysteine pairing not given here) [Compound 164]	146 nM	
Isovaleryl-DTHFPICIFGPRSKGWVC-NH2 (not fully specified (bridges); cysteine pairing not given here) [Compound 2]	5 nM	

The remaining lines, values ahead:

Potency EC50	Potency EC50 (nM)	Binder
> 300 nM		H-DTHFPCIKFGPRSK([PEG3′-Isovaleryl])GWVCK-NH2 (cysteine pairing not given here) [Compound 212]
80 nM		Isovaleryl-DTHFPCIKFC-NH2 (cysteine pairing not given here) [Compound 193]
233 nM		H-DTHFPCIKFGPRSKGWVCK([PEG3′-Isovaleryl])-NH2 (cysteine pairing not given here) [Compound 213]
> 300 nM		DTHFPCIKFKPRSKGWVCK (not fully specified; IVA on side chain of Lys 10; C-terminal amide) [Compound 205]
	> 1000 nM	H-DTHFPCIKFGPRSKGWVCK-NH2 (cysteine pairing not given here) [Compound 215]
	> 1000 nM	{Palmitoyl-PEG3′}-DTHFPCIKFGPRSKGWVCK-NH2 (cysteine pairing not given here) [Compound 217]
15 nM		Isovaleryl-DTHFPCIKFEPRSKKWVCK-NH2 (not fully specified (bridges); cysteine pairing not given here) [Compound 214]
30 nM		Isovaleryl-DTHFPCIKFGPRSCK-NH2 (cysteine pairing not given here) [Compound 188]
17 nM		Isovaleryl-DTHFPCIKFEPRSKGWCK-NH2 (not fully specified (bridges); cysteine pairing not given here) [Compound 183]
4 nM		Isovaleryl-DTHFPCIK(Palmitoyl)FGPRSKGWVCK-NH2 (cysteine pairing not given here) [Compound 194]
	> 1000 nM	Palmitoyl-DTHFPCIKFGPRSKGWVCK-NH2 (cysteine pairing not given here) [Compound 216]
> 300 nM		H-DTHFPCIKFGPK([PEG3′-Isovaleryl])SKGWVCK-NH2 (cysteine pairing not given here) [Compound 211]
342 nM		H-DTHFPCIK([PEG3′-Isovaleryl])FGPRSKGWVCK-NH2 (cysteine pairing not given here) [Compound 209]
> 300 nM		H-DTHFPCIK(Isovaleryl)FGPRSKGWVCK-NH2 (cysteine pairing not given here) [Compound 204]
4 nM		Isovaleryl-DTHFPCIKFGPK([PEG3′-Palmitoyl])SKGWVCK-NH2 (cysteine pairing not given here) [Compound 201]
457 nM		DTHFPCIKFKPRSKGWVCK (PEG3-IVA on side chain of Lys 10; C-terminal amide) [Compound 210]
3 nM		Isovaleryl-DTHFPCIKFGPRSK([PEG3′-Palmitoyl])GWVCK-NH2 (cysteine pairing not given here) [Compound 202]
4 nM		Isovaleryl-DTHFPCIKFGPRSKGWVCK([PEG3′-Palmitoyl])-NH2 (cysteine pairing not given here) [Compound 203]
6 nM		DTHFPCIKFKPRSKGWVCK (N-terminal isovaleric acid; PEG3-Palm on side chain of Lys 10; C-terminal amide) [Compound 200]
7 nM		Isovaleryl-DTHFPCIK([PEG3′-Palmitoyl])FGPRSKGWVCK-NH2 (cysteine pairing not given here) [Compound 199]
